# Patent US20160146829A1
# Legend:
# Redbeads [1] = assay: flow cytometry of red fluoromagnetic beads specific for alemtuzumab in PBS with 3% BSA, sample at 0 ug/ml (background of the series)
# Redbeads [2] = assay: flow cytometry of red fluoromagnetic beads specific for alemtuzumab in spiked PBS with 3% BSA; the text words the ug/ml values as concentrations of the beads
substance,measurement,setting,value
alemtuzumab (antibody),"Mean, FL1-H (blank sample at 0.0 ug/ml)",Redbeads [1],2.11
same,"Median, FL1-H (blank sample at 0.0 ug/ml)",Redbeads [1],1.68
same,"Mean, FL1-H (sample at 0.1 ug/ml)",Redbeads [2],5.69
same,"Mean, FL1-H (sample at 0.5 ug/ml)",Redbeads [2],49.1
same,"Mean, FL1-H (sample at 1.0 ug/ml)",Redbeads [2],94.4
same,"Mean, FL1-H (sample at 10 ug/ml)",Redbeads [2],493
same,"Median, FL1-H (sample at 0.1 ug/ml)",Redbeads [2],5.26
same,"Median, FL1-H (sample at 0.5 ug/ml)",Redbeads [2],36.2
same,"Median, FL1-H (sample at 1.0 ug/ml)",Redbeads [2],74.3
same,"Median, FL1-H (sample at 10 ug/ml)",Redbeads [2],483
